Data on 1 substance can be found in PMC8355190.

This test addresses PKM2 (human (endogenous in H1650)) (UniProt P14618). The test is described as follows: cross-linking.

Sequence of PKM2, P14618 1-531 (enzyme; other documents disagree on this pair) (P14618 whole entry): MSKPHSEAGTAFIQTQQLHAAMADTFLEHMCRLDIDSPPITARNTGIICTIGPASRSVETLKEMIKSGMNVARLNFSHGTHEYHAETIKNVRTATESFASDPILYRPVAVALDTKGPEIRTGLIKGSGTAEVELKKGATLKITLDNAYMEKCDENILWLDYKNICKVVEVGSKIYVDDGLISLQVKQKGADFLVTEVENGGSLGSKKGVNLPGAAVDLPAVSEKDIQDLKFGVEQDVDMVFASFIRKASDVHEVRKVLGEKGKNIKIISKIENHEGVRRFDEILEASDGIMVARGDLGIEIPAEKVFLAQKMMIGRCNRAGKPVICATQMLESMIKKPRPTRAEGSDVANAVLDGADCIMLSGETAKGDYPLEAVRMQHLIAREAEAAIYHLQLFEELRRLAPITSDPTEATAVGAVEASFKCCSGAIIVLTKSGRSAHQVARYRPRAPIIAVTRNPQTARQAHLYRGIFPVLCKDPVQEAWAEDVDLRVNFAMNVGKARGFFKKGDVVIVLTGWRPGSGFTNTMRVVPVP

A word on the stoichiometry N: it is the number of molecules, sites or subunits per partner or assembly. “PKM2, P14618 1-531 (enzyme; other documents disagree on this pair)” returned a stoichiometry N of 2.
